Data published in the supplement of paper PMC9876800.

Tested on: peptide library, one residue held at a place counted from the S/T acceptor
Assay: relative phosphorylation of the sub-library (ratio to the mean residue at this position); higher = residue favoured
Conditions: human
Outline: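 Relative sub-library phosphorylation is the ratio of each sub-library's signal to the mean residue at that position. The signal came from phosphorimaging of spots on streptavidin membranes, quantified by densitometry, after purified recombinant kinases reacted with biotinylated degenerate peptide sub-libraries in 384-well plates. Reactions held 50 μM peptide and 50 μM ATP spiked with γ-32P-ATP for 90 min under kinase-specific conditions.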

SIK1, construct: aa1-303, sequence (P57059 1-303, looked up): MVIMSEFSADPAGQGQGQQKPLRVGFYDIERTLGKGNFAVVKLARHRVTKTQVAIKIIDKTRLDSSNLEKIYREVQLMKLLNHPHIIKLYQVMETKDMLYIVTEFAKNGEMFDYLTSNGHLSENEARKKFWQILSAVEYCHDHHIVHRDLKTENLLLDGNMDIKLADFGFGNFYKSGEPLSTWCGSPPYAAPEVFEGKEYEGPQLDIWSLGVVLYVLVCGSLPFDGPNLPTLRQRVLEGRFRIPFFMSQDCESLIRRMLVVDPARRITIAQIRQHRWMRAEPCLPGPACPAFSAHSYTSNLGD
ACVR2A, construct: aa162-end, sequence (P27037 162-513, looked up): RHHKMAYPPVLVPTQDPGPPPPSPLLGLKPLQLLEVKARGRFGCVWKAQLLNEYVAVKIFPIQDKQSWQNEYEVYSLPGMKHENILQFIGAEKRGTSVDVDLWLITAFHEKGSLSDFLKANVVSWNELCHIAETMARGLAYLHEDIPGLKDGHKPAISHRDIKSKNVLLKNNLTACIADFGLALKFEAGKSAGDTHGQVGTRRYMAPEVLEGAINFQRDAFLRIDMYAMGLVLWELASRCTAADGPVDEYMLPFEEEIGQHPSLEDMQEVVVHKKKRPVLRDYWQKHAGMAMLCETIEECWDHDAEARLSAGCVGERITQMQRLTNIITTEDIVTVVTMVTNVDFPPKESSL
PRKD3, construct: Full length, sequence (O94806 whole entry, looked up): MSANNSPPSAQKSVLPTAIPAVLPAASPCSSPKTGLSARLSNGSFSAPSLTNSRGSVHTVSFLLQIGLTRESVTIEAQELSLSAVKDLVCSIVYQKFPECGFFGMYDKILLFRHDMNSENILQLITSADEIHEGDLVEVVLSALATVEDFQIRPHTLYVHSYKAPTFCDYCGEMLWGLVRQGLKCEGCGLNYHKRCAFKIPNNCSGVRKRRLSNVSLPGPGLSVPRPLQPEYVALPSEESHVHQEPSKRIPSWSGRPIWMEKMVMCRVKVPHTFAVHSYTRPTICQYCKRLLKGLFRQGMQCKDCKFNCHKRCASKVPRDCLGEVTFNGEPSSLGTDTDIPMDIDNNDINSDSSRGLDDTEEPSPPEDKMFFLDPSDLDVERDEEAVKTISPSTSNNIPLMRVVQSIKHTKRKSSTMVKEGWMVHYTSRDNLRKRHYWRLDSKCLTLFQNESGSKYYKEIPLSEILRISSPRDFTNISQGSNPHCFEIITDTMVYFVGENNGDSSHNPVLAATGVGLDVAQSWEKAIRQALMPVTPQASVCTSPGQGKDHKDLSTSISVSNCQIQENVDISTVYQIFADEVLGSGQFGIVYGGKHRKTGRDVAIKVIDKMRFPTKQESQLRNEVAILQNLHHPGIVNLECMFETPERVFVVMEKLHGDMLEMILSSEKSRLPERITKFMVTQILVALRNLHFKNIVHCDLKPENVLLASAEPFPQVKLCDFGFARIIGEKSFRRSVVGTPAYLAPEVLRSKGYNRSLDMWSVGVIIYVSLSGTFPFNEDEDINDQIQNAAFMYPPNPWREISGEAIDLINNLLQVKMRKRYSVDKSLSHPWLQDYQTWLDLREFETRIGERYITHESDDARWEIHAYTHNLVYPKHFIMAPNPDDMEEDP
GAK, construct: aa24-359, sequence (O14976 24-359, looked up): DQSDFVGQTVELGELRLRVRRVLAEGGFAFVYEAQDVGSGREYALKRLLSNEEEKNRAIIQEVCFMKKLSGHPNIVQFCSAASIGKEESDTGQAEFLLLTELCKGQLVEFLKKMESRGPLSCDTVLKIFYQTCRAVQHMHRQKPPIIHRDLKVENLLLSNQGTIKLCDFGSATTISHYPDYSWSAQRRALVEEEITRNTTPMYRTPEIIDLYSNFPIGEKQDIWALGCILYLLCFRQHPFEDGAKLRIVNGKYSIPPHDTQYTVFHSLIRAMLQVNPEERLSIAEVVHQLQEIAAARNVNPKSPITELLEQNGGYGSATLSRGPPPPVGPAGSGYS

ACVR2A, construct: aa162-end (from UniProt P27037)
relative phosphorylation
Conditions | at +1 | at +2 | at +3 | at +4 | at -1 | at -2 | at -3 | at -4 | at -5
A fixed | 0.647 | 1.12 | 0.899 | 0.847 | 0.822 | 0.53 | 0.912 | 0.943 | 0.992
D fixed | 1.68 | 1.24 | 1.06 | 1.09 | 1.23 | 4.3 | 1.79 | 1.77 | 1.51
E fixed | 3.21 | 1.03 | 1.48 | 1.09 | 1.29 | 5.23 | 2.05 | 1.48 | 1.34
F fixed | 0.932 | 0.983 | 1.09 | 0.89 | 1.17 | 0.504 | 0.877 | 1.05 | 1.02
G fixed | 0.575 | 1.36 | 1.01 | 0.924 | 0.57 | 0.5 | 1.11 | 0.933 | 0.818
H fixed | 0.7 | 1.12 | 1 | 0.974 | 1.07 | 0.487 | 0.9 | 0.937 | 0.969
I fixed | 1.18 | 0.915 | 0.942 | 0.957 | 0.804 | 0.454 | 0.855 | 0.895 | 1.06
K fixed | 0.327 | 0.805 | 0.785 | 0.896 | 0.532 | 0.354 | 0.603 | 0.69 | 0.868
L fixed | 0.873 | 0.674 | 1.04 | 0.87 | 1.27 | 0.431 | 0.814 | 0.884 | 1.01
M fixed | 0.996 | 0.879 | 1 | 1.13 | 1.44 | 0.399 | 0.875 | 0.98 | 0.886
N fixed | 0.638 | 0.863 | 0.891 | 0.946 | 0.816 | 0.676 | 0.854 | 0.852 | 0.911
P fixed | 0.34 | 0.989 | 1.14 | 1.29 | 0.676 | 0.321 | 0.854 | 0.791 | 0.706
Q fixed | 1.23 | 1 | 0.848 | 1.05 | 0.9 | 0.769 | 0.863 | 0.82 | 0.732
R fixed | 0.416 | 0.935 | 0.658 | 0.835 | 0.577 | 0.504 | 0.783 | 0.777 | 0.808
V fixed | 1.32 | 0.999 | 0.963 | 0.877 | 1.1 | 0.502 | 0.928 | 0.924 | 1.02
W fixed | 0.961 | 0.983 | 1.08 | 1.36 | 1.39 | 0.54 | 1 | 1.28 | 1.37
Y fixed | 0.971 | 1.11 | 1.11 | 0.985 | 1.33 | 0.498 | 0.935 | 0.996 | 0.982
pThr fixed | 4.65 | 1.1 | 0.882 | 1.2 | 1.37 | 1.01 | 2.05 | 1.37 | 1.33
pTyr fixed | 2.81 | 0.877 | 1.39 | 1 | 1.81 | 0.721 | 1.66 | 1.16 | 1.29

SIK1, construct: aa1-303 (from UniProt P57059)
relative phosphorylation
Conditions | at +1 | at +2 | at +3 | at +4 | at -1 | at -2 | at -3 | at -4 | at -5
A fixed | 0.56 | 1.1 | 0.618 | 0.641 | 0.972 | 1.89 | 0.589 | 0.941 | 1.01
D fixed | 0.593 | 0.666 | 1.84 | 0.416 | 0.724 | 0.326 | 0.282 | 0.786 | 0.672
E fixed | 0.718 | 0.524 | 0.523 | 0.334 | 0.46 | 0.304 | 0.309 | 0.966 | 0.746
F fixed | 0.996 | 0.694 | 1.08 | 0.86 | 0.432 | 1.13 | 0.47 | 0.768 | 1.22
G fixed | 0.493 | 0.841 | 0.595 | 0.697 | 2.75 | 0.851 | 0.382 | 1.01 | 0.737
H fixed | 0.797 | 0.662 | 1.18 | 0.767 | 0.966 | 1.44 | 0.877 | 1.24 | 0.829
I fixed | 1.18 | 1.06 | 0.907 | 2.22 | 0.289 | 0.451 | 0.24 | 0.457 | 0.721
K fixed | 0.839 | 0.992 | 0.716 | 0.722 | 1.76 | 1.23 | 2.52 | 1.61 | 1.31
L fixed | 1.11 | 0.626 | 0.992 | 4.05 | 0.722 | 0.35 | 0.343 | 0.535 | 1.7
M fixed | 1.87 | 0.998 | 0.928 | 1.48 | 0.82 | 0.556 | 0.508 | 0.93 | 1.09
N fixed | 1.2 | 1.09 | 2.97 | 0.688 | 1.43 | 0.809 | 0.587 | 1.01 | 0.894
P fixed | 0.315 | 1.08 | 0.439 | 0.676 | 1.24 | 0.347 | 0.505 | 1.09 | 0.831
Q fixed | 2.08 | 0.958 | 0.965 | 0.557 | 1.4 | 0.784 | 0.675 | 1.01 | 0.958
R fixed | 1.16 | 1.33 | 0.659 | 0.518 | 1.22 | 1.35 | 6.57 | 1.86 | 1.65
V fixed | 1.23 | 1.1 | 0.599 | 1.12 | 0.565 | 0.868 | 0.329 | 0.512 | 0.744
W fixed | 0.868 | 2.13 | 0.916 | 0.695 | 0.516 | 2.72 | 1.25 | 1.24 | 1.05
Y fixed | 0.982 | 1.14 | 1.08 | 0.564 | 0.732 | 1.59 | 0.569 | 1.03 | 0.832
pThr fixed | 0.764 | 0.579 | 0.35 | 0.475 | 0.285 | 0.388 | 0.433 | 0.706 | 0.562
pTyr fixed | 0.75 | 0.358 | 0.419 | 0.526 | 0.812 | 0.469 | 0.515 | 0.699 | 0.731

GAK, construct: aa24-359 (from UniProt O14976)
relative phosphorylation
Conditions | at +1 | at +2 | at +3 | at +4 | at -1 | at -2 | at -3 | at -4 | at -5
A fixed | 0.783 | 1.19 | 0.848 | 0.882 | 0.845 | 0.985 | 0.819 | 0.986 | 0.954
D fixed | 0.647 | 0.954 | 0.997 | 0.884 | 0.75 | 0.753 | 0.898 | 1.14 | 1.08
E fixed | 0.658 | 0.86 | 1.05 | 0.891 | 0.653 | 0.778 | 0.912 | 1.49 | 1.03
F fixed | 0.643 | 0.918 | 0.862 | 1.02 | 0.904 | 0.801 | 0.709 | 0.856 | 0.879
G fixed | 5.69 | 1.37 | 1.28 | 0.908 | 0.974 | 1.08 | 0.888 | 0.947 | 0.831
H fixed | 0.829 | 1.13 | 1.19 | 0.96 | 1.13 | 1.13 | 1.11 | 1.11 | 1.1
I fixed | 0.588 | 0.741 | 0.822 | 0.849 | 0.824 | 0.879 | 0.935 | 0.852 | 1.06
K fixed | 0.766 | 1.08 | 1.21 | 1.21 | 2.28 | 1.1 | 1.43 | 1.12 | 1.09
L fixed | 0.615 | 0.801 | 0.914 | 0.987 | 0.808 | 0.994 | 1.01 | 0.83 | 0.802
M fixed | 0.649 | 0.792 | 0.825 | 0.896 | 0.813 | 1.06 | 1.07 | 0.875 | 0.853
N fixed | 0.841 | 1.28 | 1.22 | 0.913 | 0.973 | 1.65 | 1.17 | 0.941 | 0.978
P fixed | 0.729 | 0.736 | 0.801 | 0.834 | 1.23 | 0.687 | 0.751 | 0.69 | 0.696
Q fixed | 0.696 | 1.1 | 1.05 | 1 | 0.965 | 1.22 | 1.16 | 1.04 | 0.853
R fixed | 0.833 | 1.26 | 1.2 | 1.34 | 1.3 | 1.28 | 1.43 | 1.14 | 1.15
V fixed | 0.59 | 0.902 | 0.974 | 0.882 | 0.914 | 0.86 | 0.901 | 0.959 | 1
W fixed | 0.769 | 1.03 | 0.82 | 1.59 | 0.803 | 0.848 | 0.849 | 1.03 | 1.05
Y fixed | 0.672 | 0.831 | 0.931 | 0.947 | 0.838 | 0.9 | 0.959 | 0.998 | 1.6
pThr fixed | 0.904 | 1.95 | 1.38 | 1.44 | 1.22 | 1.63 | 1.69 | 1.55 | 1.23
pTyr fixed | 0.674 | 0.963 | 0.94 | 0.772 | 0.884 | 1.09 | 1.27 | 1.23 | 1.27

PRKD3, construct: Full length (from UniProt O94806)
relative phosphorylation
Conditions | at +1 | at +2 | at +3 | at +4 | at -1 | at -2 | at -3 | at -4 | at -5
A fixed | 0.865 | 1.03 | 0.829 | 0.85 | 0.845 | 1.21 | 1.03 | 1.31 | 0.989
D fixed | 0.493 | 0.636 | 0.664 | 0.709 | 0.598 | 0.341 | 0.231 | 0.402 | 0.344
E fixed | 0.444 | 0.536 | 0.561 | 0.66 | 0.486 | 0.418 | 0.272 | 0.711 | 0.332
F fixed | 1.09 | 1.07 | 1 | 1.09 | 0.812 | 0.56 | 0.417 | 0.797 | 0.895
G fixed | 0.727 | 1.06 | 1.17 | 1.21 | 0.6 | 0.453 | 0.375 | 1.21 | 0.563
H fixed | 1.33 | 1.36 | 1.22 | 1.29 | 1.15 | 0.839 | 0.572 | 1.14 | 0.525
I fixed | 1.02 | 0.628 | 0.744 | 0.795 | 0.526 | 0.496 | 0.321 | 0.678 | 1.11
K fixed | 1.31 | 1.27 | 1.21 | 1.22 | 2.07 | 2.85 | 2.2 | 1.98 | 0.895
L fixed | 1.06 | 0.824 | 0.957 | 0.908 | 1.18 | 0.867 | 0.359 | 0.809 | 3.37
M fixed | 1.16 | 0.929 | 0.883 | 0.854 | 1.03 | 1.43 | 0.444 | 1.15 | 0.774
N fixed | 1.48 | 1.26 | 1.02 | 1.1 | 1.38 | 0.795 | 0.418 | 0.649 | 0.483
P fixed | 0.453 | 1.24 | 1.72 | 1.31 | 1.1 | 0.374 | 0.478 | 0.476 | 1.08
Q fixed | 1.08 | 0.877 | 0.984 | 1.1 | 0.889 | 1.83 | 0.588 | 1.16 | 0.866
R fixed | 1.28 | 1.38 | 1.05 | 0.774 | 1.79 | 2.58 | 8.02 | 2.12 | 1.8
V fixed | 0.988 | 0.718 | 0.812 | 0.774 | 0.751 | 0.778 | 0.333 | 0.85 | 1.61
W fixed | 0.885 | 1.05 | 0.991 | 1.31 | 0.708 | 0.526 | 0.436 | 0.638 | 0.544
Y fixed | 1.35 | 1.12 | 1.19 | 1.04 | 1.08 | 0.657 | 0.51 | 0.934 | 0.827
pThr fixed | 0.532 | 0.513 | 0.622 | 0.51 | 0.321 | 0.349 | 0.266 | 0.508 | 0.377
pTyr fixed | 0.589 | 0.609 | 0.669 | 0.608 | 0.662 | 0.409 | 0.495 | 0.511 | 0.572
